Reference: paper PMC10953402, “Structure and Function of the α‐Hydroxylation Bimodule of the Mupirocin Polyketide Synthase” (Angewandte Chemie (International Ed. in English), 2023)

Legend:
[1] = target: the molecule itself; test: SEC; purified MupA alone, at the lower concentrations (not above 2 mg/ml)
[2] = target: the molecule itself; test: SEC; purified MupA alone, at higher concentrations (>2 mg/ml)
[3] = target: the molecule itself; test: not stated; purification of recombinant Fre (Figure S6); how the dimer was shown is not told

Row | Protein | stoichiometry N [1] | stoichiometry N [2] | stoichiometry N [3]
1 | MupA (enzyme, Pseudomonas fluorescens, UniProt Q9AH80 1-369, looked up, MupA, predicted FMNH2-dependent monooxygenase of the mupirocin biosynthetic gene cluster of Pseudomonas fluorescens NCIMB 10586; Dimer by SEC, dimer of dimers above 2 mg/ml; Used unlabelled in the NMR titrations; they may stand in the Supporting Information; also called flavin-dependent monooxygenase MupA; FMO; source: cloned, over-expressed and purified to homogeneity) MSVEQLLGLGVTNAARAPRQPAFSLLFFSDVREDISASEKYEFARSLTLFGDAQGFEAVYFPERHFHEFGAIYPDSAVMAASLIPQTRHIRFRTAGISLPLHHPARVVESWSMNDVLSGGRVDLGFGSGWSRPDFLLAPHAYEDRREVMWQRIEQVRRLWAGERLSFPGPGGDPVSVVTFPRPLQTSLNVWILVAQNTESFIAAGKAGFNVFTMLYGIDLPDLAEKIGLYRQARRDAGFDPASGRVTLMLHTLVGPDSAWVRRAVEAPFKDYIRSSLVAHMKARATPDGRPLDATEQENVLQYAFERYYETGALFGTVDEVRYRVGQVLETGVDEIACLMDFGVDYAVVHQSLPYLEQLVASFQERSAQ | 2 | 4 | –
2 | Fre (enzyme, E. coli, UniProt P0AEN1 1-233, looked up, NAD(P)H:flavin oxidoreductase Fre of E. coli (GenBank M61182); Purified as the expected dimer; also called oxidoreductase Fre; E. coli Fre; source: E. coli, overexpressed, purified) MTTLSCKVTSVEAITDTVYRVRIVPDAAFSFRAGQYLMVVMDERDKRPFSMASTPDEKGFIELHIGASEINLYAKAVMDRILKDHQIVVDIPHGEAWLRDDEERPMILIAGGTGFSYARSILLTALARNPNRDITIYWGGREEQHLYDLCELEALSLKHPGLQVVPVVEQPEAGWRGRTGTVLTAVLQDHGTLAEHDIYIAGRFEMAKIARDLFCSERNAREDRLFGDAFAFI | – | – | 2
